Source: article PMC5429572, “Intrabodies against the Polysialyltransferases ST8SiaII and ST8SiaIV inhibit Polysialylation of NCAM in rhabdomyosarcoma tumor cells” (BMC Biotechnology, 2017)

Experiments:
[1] = target: T1, Flag-HA-tagged ST8SiaIV expressed in HEK293 cells (Cricetulus griseus (assumed), UniProt Q64690, N-glycosylated (several glycoforms, fully glycosylated about 55 kDa)); assay: co-IP; HEK293 cells co-transfected with Flag-HA-tagged polyST and myc-tagged intrabody; lysis in 50 mM Tris-HCl pH 8, 1 mM MgCl2, 1% NP-40; precipitated with anti-myc antibody and Protein G PLUS Agarose; blot with anti-FLAG M5; conditions: partners not purified
T1 construct: polysialyltransferase ST8SiaIV; The empty vector of the control is pcDNA3-FLAG-HA; The CHO line of the functional rows carries Flag-HA-tagged hamster ST8SiaIV; also called ST8SiaVI; polyST; source: HEK293, transiently transfected, in lysate

[2] = target: T2, Flag-HA-tagged ST8SiaII expressed in HEK293 cells (Mus musculus (assumed), UniProt O35696, N-glycosylated (several glycoforms, fully glycosylated about 60 kDa)); assay: as above; conditions: partners not purified
T2 construct: polysialyltransferase ST8SiaII; The empty vector of the control is pcDNA3-FLAG-HA; The CHO line of the functional rows carries N-terminally Flag-HA-tagged murine ST8SiaII; also called polyST; source: HEK293, transiently transfected, in lysate
T2 sequence (O35696 whole entry): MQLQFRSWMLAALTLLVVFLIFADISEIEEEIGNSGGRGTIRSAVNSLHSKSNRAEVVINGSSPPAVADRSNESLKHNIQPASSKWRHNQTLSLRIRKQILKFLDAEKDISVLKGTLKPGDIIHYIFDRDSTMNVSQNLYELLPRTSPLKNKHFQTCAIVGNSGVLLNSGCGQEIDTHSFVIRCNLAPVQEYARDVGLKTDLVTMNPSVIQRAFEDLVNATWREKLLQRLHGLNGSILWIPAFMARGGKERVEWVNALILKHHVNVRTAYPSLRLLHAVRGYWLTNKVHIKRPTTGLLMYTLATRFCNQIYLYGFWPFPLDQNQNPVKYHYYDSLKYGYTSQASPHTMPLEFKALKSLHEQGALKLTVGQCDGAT

T1 sequence (Q64690 whole entry): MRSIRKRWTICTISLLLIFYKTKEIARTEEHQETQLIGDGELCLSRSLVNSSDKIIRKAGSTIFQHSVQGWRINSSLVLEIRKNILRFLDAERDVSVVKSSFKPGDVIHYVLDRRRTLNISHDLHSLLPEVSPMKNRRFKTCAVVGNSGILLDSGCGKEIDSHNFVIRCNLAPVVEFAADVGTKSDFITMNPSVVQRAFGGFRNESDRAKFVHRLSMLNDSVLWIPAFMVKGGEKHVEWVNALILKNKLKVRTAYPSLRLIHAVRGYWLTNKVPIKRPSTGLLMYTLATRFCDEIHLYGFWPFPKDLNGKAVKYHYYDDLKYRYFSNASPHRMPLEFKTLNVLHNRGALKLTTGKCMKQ

Row | binding result [1] | binding result [2] | Binder
1 | binds |  | αST8SiaIV-IB (ER intrabody against ST8SiaIV, scFv from mAb 3175) (scFv, V domains shown, synthetic linker, printed as (Gly4 Ser)3; Encoded with an N-terminal ER signal peptide from the vector pCMV/myc/ER; the myc tag is followed by the ER retention signal; also called anti-ST8SiaIV-IB; anti-ST8SiaIV intrabody; source: HEK293, transiently transfected (pCMV/myc/ER), in lysate; not shown: myc, C-terminal, kept) VH: EVQLQQSGAELVRSGASVKLSCTTSGFNIKDYYMHWVKQRPEQGLEWIGWIDPENGDTEYAPKFQGKATMTADTSSNTAYLQLSSLTSEDTAVYYCNYRFLAMEYWGQGTSVTVSS VL: NIMMTQSPSSLAVSAGEKVTMSCKSSQSVLYTSNQKNYLAWYQQKPGQSPKLLIYWASTRESGVPDRFTGSGSGTDFTLTISSVQAEDLAVYYCHQYLSSYTFGGGTKLEIK
2 |  | binds | αST8SiaII-IB (ER intrabody against ST8SiaII, scFv from mAb 3167) (scFv, V domains shown, synthetic linker, printed as (Gly4 Ser)3; Encoded with an N-terminal ER signal peptide from the vector pCMV/myc/ER; the myc tag is followed by the ER retention signal; also called anti-ST8SiaII-IB; anti-ST8SiaII intrabody; source: HEK293, transiently transfected (pCMV/myc/ER), in lysate; not shown: myc, C-terminal, kept) VH: QVQLQQPGAELVKAGASVKLSCKASGYTFTNYWMHWVKQRPGQGLEWIGEIDPSESYTNYNQKFKGKATLTVDKSASTAYMQLSSLTSEDSAVYYCTRGDYWGQGTTLTVSS VL: DVVVTQTPLSLPVSFGDQVSISCRSSQSLANSYGNTYLSWYLHKPGQSPQLLIYGISNRFSGVPDRFSGSGSGTDFTLKISTIKPEDLGIYYCLQGAHQPWTFGGGTKLEIK
